Columns and labels:
[1] = target: T1, microtubules polymerised from porcine brain tubulin (GMPCPP-stabilised seeds, dynamic GDP lattice, or … (porcine, UniProt P02550 1-451, part of the tubulin labelled with Rhodamine or HiLyte 647)); part biotinylated (surface-immobilised microtubules) | part of the tubulin labelled with Rhodamine or HiLyte 647; part biotinylated …); experiment: FRAP, microtubule-microtubule overlap (median)
[2] = target: T1, microtubules polymerised from porcine …; experiment: FRAP, actin-microtubule overlap (median), with actin filaments

T1 sequence (P02550 whole entry, chain 1 of 2): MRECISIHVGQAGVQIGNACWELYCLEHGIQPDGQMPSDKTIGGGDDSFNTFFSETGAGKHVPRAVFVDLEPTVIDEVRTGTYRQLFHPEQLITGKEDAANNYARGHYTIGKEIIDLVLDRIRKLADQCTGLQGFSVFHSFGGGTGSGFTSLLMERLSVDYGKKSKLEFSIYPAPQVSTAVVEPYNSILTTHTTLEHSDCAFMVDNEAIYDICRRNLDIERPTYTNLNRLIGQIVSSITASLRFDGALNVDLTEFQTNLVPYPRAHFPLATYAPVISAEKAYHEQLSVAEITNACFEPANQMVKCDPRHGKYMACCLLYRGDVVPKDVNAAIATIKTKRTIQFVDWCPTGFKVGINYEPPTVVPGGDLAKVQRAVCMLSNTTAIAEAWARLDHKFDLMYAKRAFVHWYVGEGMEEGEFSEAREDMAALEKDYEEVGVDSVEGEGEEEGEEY
T1 sequence (chain, as listed by the source, chain 2 of 2): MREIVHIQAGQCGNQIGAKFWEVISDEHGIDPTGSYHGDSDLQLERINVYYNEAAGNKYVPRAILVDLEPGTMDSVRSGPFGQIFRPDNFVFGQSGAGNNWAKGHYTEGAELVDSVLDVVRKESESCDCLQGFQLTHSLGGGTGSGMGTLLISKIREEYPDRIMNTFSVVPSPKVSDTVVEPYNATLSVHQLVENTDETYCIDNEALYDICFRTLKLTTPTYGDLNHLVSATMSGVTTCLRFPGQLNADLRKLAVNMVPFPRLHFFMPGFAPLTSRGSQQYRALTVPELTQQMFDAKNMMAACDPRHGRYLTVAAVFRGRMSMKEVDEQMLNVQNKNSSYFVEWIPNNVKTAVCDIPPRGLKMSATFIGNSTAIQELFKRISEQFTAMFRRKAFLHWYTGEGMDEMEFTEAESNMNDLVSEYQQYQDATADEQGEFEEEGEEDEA

B1: Anillin-GFP (full-length human anillin, isoform 2, 1087 amino acids) (natural protein)
chain: MDPFTEKLLERTRARRENLQRKMAERPTAAPRSMTHAKRARQPLSEASNQQPLSGGEEKSCTKPSPSKKRCSDNTEVEVSNLENKQPVESTSAKSCSPSPVSPQVQPQAADTISDSVAVPASLLGMRRGLNSRLEATAASSVKTRMQKLAEQRRRWDNDDMTDDIPESSLFSPMPSEEKAASPPRPLLSNASATPVGRRGRLANLAATICSWEDDVNHSFAKQNSVQEQPGTACLSKFSSASGASARINSSSVKQEATFCSQRDGDASLNKALSSSADDASLVNASISSSVKATSPVKSTTSITDAKSCEGQNPELLPKTPISPLKTGVSKPIVKSTLSQTVPSKGELSREICLQSQSKDKSTTPGGTGIKPFLERFGERCQEHSKESPARSTPHRTPIITPNTKAIQERLFKQDTSSSTTHLAQQLKQERQKELACLRGRFDKGNIWSAEKGGNSKSKQLETKQETHCQSTPLKKHQGVSKTQSLPVTEKVTENQIPAKNSSTEPKEVIREIEMSVDDDDINSSKVINDLFSDVLEEGELDMEKSQEEMDQALAESSEEQEDALNISSMSLLAPLAQTVGVVSPESLVSTPRLELKDTSRSDESPKPGKFQRTRVPRAESGDSLGSEDRDLLYSIDAYRSQRFKETERPSIKQVIVRKEDVTSKLDEKNNAFPCQVNIKQKMQELNNEINMQQTVIYQASQALNCCVDEEHGKGSLEEAEAERLLLIATGKRTLLIDELNKLKNEGPQRKNKASPQSEFMPSKGSVTLSEIRLPLKADFVCSTVQKPDAANYYYLIILKAGAENMVATPLASTSNSLNGDALTFTTTFTLQDVSNDFEINIEVYSLVQKKDPSGLDKKKKTSKSKAITPKRLLTSITTKSNIHSSVMASPGGLSAVRTSNFALVGSYTLSLSSVGNTKFVLDKVPFLSSLEGHIYLKIKCQVNSSVEERGFLTIFEDVSGFGAWHRRWCVLSGNCISYWTYPDDEKRKNPIGRINLANCTSRQIEPANREFCARRNTFELITVRPQREDDRETLVSQCRDTLCVTKNWLSADTKEERDLWMQKLNQVLVDIRLWQPDACYKPIGKP
Binder B1 has a koff [1] of 0.29 s⁻¹ and a koff [2] of 0.513 s⁻¹.

Reference: article PMC12402178 (2025)
